B1: Rad51 (natural protein, S. pombe, UniProt P36601 1-365, looked up)
chain: MADTEVEMQVSAADTNNNENGQAQSNYEYDVNVQDEEDEAAAGPMPLQMLEGNGITASDIKKIHEAGYYTVESIAYTPKRQLLLIKGISEAKADKLLGEASKLVPMGFTTATEYHIRRSELITITTGSKQLDTLLQGGVETGSITELFGEFRTGKSQICHTLAVTCQLPIDMGGGEGKCLYIDTEGTFRPVRLLAVADRYGLNGEEVLDNVAYARAYNADHQLELLQQAANMMSESRFSLLVVDSCTALYRTDFSGRGELSARQMHLARFMRTLQRLADEFGIAVVITNQVVAQVDGISFNPDPKKPIGGNILAHSSTTRLSLRKGRGEQRICKIYDSPCLPESEAIFAINSDGVGDPKEIIAPV
notes: Rad51, RecA-family recombinase of S. pombe; Covalently attached to Affi-gel 15 in the pull-down; Multimer in solution by SEC; also called Affi-Rad51
B2: Swi5-Sfr1 (wild type, full-length Sfr1) (complex, S. pombe)
chain 1: MEKSQLESRVHLLEQQKEQLESSLQDALAKLKNRDAKQTVQKHIDLLHTYNEIRDIALGMIGKVAEHEKCTSVELFDRFGVNGSE
chain 2: MSQTINSELNENATSQCKEDLKVSLSESDLRDSQGQLGIENPPKCNNSGNHSDNLGFIEQSETVHPENEKALTPDLRDTKIHTSLPITTPFSKKRAREAKNILLKPFKSPLRQTASPQVADTNLKPSLAVTNLNSDETNTSSEPVTSPLRTTPNSIKRQKRLFKSPISNCLNPKSDPEITQLLSRRLKLEKEVRNLQEQLITAETARKVEAKNEDKDLQTLIQKWKNAAQQAAEVLFKPMAERIRLAGGVTQSFRIEEGENKGQIQEVRTEFTMSMFLNQFGVPVHLMSFDEENGDWKS

Assays:
[1] = target: B2; assay: pull-down; Rad51 covalently attached to Affi-gel 15 (2 µg protein/µL gel); Swi5-Sfr1 variant in Affi-gel buffer (25 mM HEPES-KOH pH 7.5, 150 mM NaCl, 3.5 mM MgCl2, 0.5 mM DTT, 0.05 µg/µL BSA, 10% glycerol, 0.05% igepal CA-630); 30 °C 30 min; Sfr1 detected by immunoblot; Affi-BSA as control; details: both partners purified
Rad51 = target: B1; assay: cell-based or functional assay

binding result [1] | Rad51-dependent ATP turnover, fold increase at a Swi5-Sfr1:Rad51 ratio of 1:20 (0.25 µM Swi5-Sfr1, 5 µM Rad51) (Rad51) [fold] | Binder
binds |  | B1
 | 1.85 | B2

Reference: doi:10.1101/738179, “Rad51 Interaction Analysis Reveals a Functional Interplay Among Recombination Auxiliary Factors” (bioRxiv, 2019)
